The values below come from patent US4829052A, “Serine protease inhibitors” (Monsanto Company, priority 1987, dated 1989).

One experiment concerns the target T1, purified HE (Homo sapiens, UniProt P08246).
T1 sequence (P08246 30-267): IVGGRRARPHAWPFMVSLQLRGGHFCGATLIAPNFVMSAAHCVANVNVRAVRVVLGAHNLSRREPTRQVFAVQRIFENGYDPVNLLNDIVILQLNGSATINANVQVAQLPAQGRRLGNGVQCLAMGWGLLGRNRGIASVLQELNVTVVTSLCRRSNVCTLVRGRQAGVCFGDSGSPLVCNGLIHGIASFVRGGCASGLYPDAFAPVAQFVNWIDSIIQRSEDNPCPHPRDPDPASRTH
Nature of the experiment: 3H-Elastin assay with purified HE. In kind it is biochemical. To be noted: FIG. 4. The method, then: The inhibition of elastolysis by peptide 8 was investigated using the ^3 H-elastin assay and purified HE.
Another, yet less sensitive, assay employs radiolabelled elastin as the solid substrate in order to imitate degradation of connective tissue.
Radiolabeling of bovine neck ligament elastin is carried out with tritiated sodium borohydride as described by Stone, et al. (Anal. Biochem., 1977, 80:572-577). Elastin coated microtiter plates are prepared essentially as described above for the fibronectin plates. The assay is run similarly except that the supernatant is added to a scintillation cocktail for counting. The linearity of the responses to purified HE is also tested.

In experiment [1] the target is T2, PMN-derived human elastase activity (Homo sapiens, UniProt P08246).
T2 construct: Some assays employed elastase activity derived from freshly prepared neutrophils (PMN); endogenous in cells; host or cells: freshly prepared, stimulated neutrophils (PMN)
T2 sequence (P08246 30-267): T1 sequence (P08246 30-267)
Kind of experiment: 125I-Fibronectin assay with stimulated PMN as source of elastase activity. Type of experiment: cell-based. The settings on record: HLE equivalent of 4 nM, FIG. 3.
Procedure: The data points represent the mean of several (n=3 to 9) replicates compared to the control that contained no inhibitor.
This assay is designed to model the degradation of connective tissue. The assay is carried out essentially as described by Campbell, et al. (J. Clin. Invest., 1982, 70:845-52). Briefly, purified human plasma fibronectin (fn) is radiolabeled with ^125 I using Enzymobeads and conventional procedures. The desalted is diluted with fn to yield ca. cpm/ug. This material is further diluted with pH 9.6 barbital buffer and 200 ul (30 ug fn, 50000 cpm) is pipetted into the wells of a flat bottomed 96 well microtiter plate. The plates are dried for about 24 hours at 37° C. and unbound fn is removed with 2 washes of phosphate buffered saline (PBS). The plates are stored at 4° C. and are stable for at least 2 weeks.
For an assay each coated well is filled with a total volume of 200 μl. All measurements are carried out at optimal pH and buffer conditions. After addition of proteolytic activity with or without inhibitor the plate is incubated at 37° C. for 3 hours. The well contents are centrifuged and a 100 μl aliquot is counted for 1251gamma radiation. Some assays employed elastase activity derived from freshly prepared neutrophils (PMN). ln this case an activating agent to stimulate the PMN is present in the well and the PMN is added last. […]

The next experiment concerns the target T3, Human Sputum Cathepsin G (Homo sapiens, UniProt P08311).
T3 construct: Human Sputum Cathepsin G (Product No. SG-45, EPC, Inc., Pacific, Mo.); purchased EPC, Inc., Pacific, Mo; SG-45; host or cells: human sputum
T3 sequence (P08311 21-255): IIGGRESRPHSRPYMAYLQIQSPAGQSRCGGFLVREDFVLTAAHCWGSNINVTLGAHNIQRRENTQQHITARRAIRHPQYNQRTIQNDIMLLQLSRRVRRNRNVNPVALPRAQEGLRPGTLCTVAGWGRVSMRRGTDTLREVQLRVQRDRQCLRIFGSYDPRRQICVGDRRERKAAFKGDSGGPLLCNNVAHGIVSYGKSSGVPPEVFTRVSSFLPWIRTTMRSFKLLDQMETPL
Nature of the experiment: Cathepsin G assay (spectrophotometric, p-nitroanilide substrate). In kind it is biochemical. To be noted: inhibitor/protease ratio between about 10/1 and 50/1. The method, then: (§1) The inhibitory activity of the polypeptides of the present invention can be easily assayed using in vitro assays. In these types of spectrophotometric assays the activity of the serine protease is measured toward an appropriate p-nitroanilide substrate in the presence and absence of the peptide inhibitor. The enzyme catalyzed hydrolysis of the peptide p-nitroanilide substrate produces p-nitroanaline which results in an increase in absorbance which is monitored in the range of 405 to 410 nm. The rate of increase in absorbance is a measure of the enzymatic activity and the decrease in this rate relative to a suitable control is used to ascertain inhibition. The general assay procedure and details of the particular assays employed in the examples are provided in the Appendix following the examples. It is also possible to test the polypeptides in a functionally oriented assay that emulates in vivo conditions. Such an inhibition assay for elastase is also described in the Appendix.
(§2) Generalized Protocol Spectrophotometric Assays:
(§3) (1) Pipette 100 μl of enzyme solution into a disposable polystyrene cuvette (1 cm optical path length).
(§4) (2) Add (1900-X) μl of bufferto the cuvette, where X is the volume of test solution in microliters that is added in the next step.
(§5) Add X μl of test solution to the cuvette, where X ranges from 0 μl for the control to a maximum of about 500 μl. Incubate the solution for a period of 1 to 5 minutes at ambient temperature.
(§6) (4) Add 100 μl of substrate solution to the cuvette. Mix the contents by covering the cuvette with a piece of paraffin film and repeatedly inverting for a period of 5 to 15 seconds.
(§7) (5) Record the change in absorbance for about 5 minutes at either 405 or 410 nm, depending on the assay, with a spectrophotometer equipped with a suitable recording device.
(§8) The percent inhibition is calculated from the formula [formula] where (ΔA/min) is the initial rate of absorbance change.
(§9) (7) For more accurate quantitative determinations temperature control of the cuvette holders and the reagent solutions can be instituted.
(§10) (8) The test solution can be crude oxidized peptide prepared as described above, fractions from a chromatographic separation or purified polypeptides.
(A) Buffer Solution - Tris-NaCl buffer consisting of 0.1M Tris-HCl, pH 8.0 containing 0.5M NaCl and 0.03% sodium azide.
(B) Substrate solution - Dissolve 50 mg of N-succinyl-L-alanyl-L-alanyl-L-prolyl-L-phenylalanine p-nitroanilide in 1 ml of 1-methyl-2-pyrrolidinone and dilute to 50 ml with Tris-NaCl buffer.
(C) Enzyme Solution - Human Sputum Cathepsin G (Product No. SG-45, EPC, Inc., Pacific, Mo.). Dissolve 1 mg of protein per 1 ml of Tris-NaCl buffer. Store on ice or at 4° C.
(D) Test Solutions - See the general protocol, number 8.
Procedure: Use the above solution in the general protocol described above. […]

A further experiment addresses T4, bovine trypsin (Bos taurus, UniProt P00760).
T4 sequence (P00760 24-246): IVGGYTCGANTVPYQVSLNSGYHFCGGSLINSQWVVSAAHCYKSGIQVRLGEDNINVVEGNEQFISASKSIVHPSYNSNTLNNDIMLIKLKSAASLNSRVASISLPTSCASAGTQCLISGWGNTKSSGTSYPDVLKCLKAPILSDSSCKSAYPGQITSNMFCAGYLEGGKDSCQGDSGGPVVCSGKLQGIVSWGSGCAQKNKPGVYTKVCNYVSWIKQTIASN
Kind of experiment: Trypsin assay (spectrophotometric, N-Benzoyl-L-arginine p-nitroanilide substrate). In kind it is biochemical. The settings on record: inhibitor/protease ratio between about 10/1 and 50/1. The protocol:
as §1, §2, §3, §4, §5, §6, §7, §8, §9, §10
(A) Buffer Solution - Triethanolamine buffer consisting of 200 mM triethanolamine, 20 mM CaCl2, pH 7.8
(B) Substrate solution - Dissolve 50 mg of N-Benzoyl-L-arginine p-nitroanilide in 50 ml of water. Sonicate for 5 to 10 minutes to completely dissolve the solid material.
(C) Enzyme solution - Dissolve 1 mg of bovine trypsin in 10 ml of 0.001N HCl stored on ice during the assay.
(D) Test Solution - See general protocol, number 8.
Procedure: Use the above solutions in the general protocol described above.

Experiment [2] concerns the target T5, purified human elastase (HE) (Homo sapiens, UniProt P08246).
T5 sequence (P08246 30-267): T1 sequence (P08246 30-267)
Kind of experiment: 125I-Fibronectin assay with purified human elastase. In kind it is biochemical. The settings on record: enzyme concentration 4 nM, FIG. 3.
Procedure: This assay is designed to model the degradation of connective tissue. […] Briefly, purified human plasma fibronectin (fn) is radiolabeled with ^125 I using Enzymobeads and conventional procedures. The desalted is diluted with fn to yield ca. cpm/ug. This material is further diluted with pH 9.6 barbital buffer and 200 ul (30 ug fn, 50000 cpm) is pipetted into the wells of a flat bottomed 96 well microtiter plate. The plates are dried for about 24 hours at 37° C. and unbound fn is removed with 2 washes of phosphate buffered saline (PBS). The plates are stored at 4° C. and are stable for at least 2 weeks.
For an assay each coated well is filled with a total volume of 200 μl. All measurements are carried out at optimal pH and buffer conditions. After addition of proteolytic activity with or without inhibitor the plate is incubated at 37° C. for 3 hours. The well contents are centrifuged and a 100 μl aliquot is counted for 1251gamma radiation. Some assays employed elastase activity derived from freshly prepared neutrophils (PMN). ln this case an activating agent to stimulate the PMN is present in the well and the PMN is added last. A standard curve showing the linearity of the response to the amount of purified human elastase (HE) added is obtained concurrently with each assay.

As for “RVCPVILMKCKKDSDCLAECVCLEHGYCG (RVCPVILMKCKKDSDCLAECVCLEHGYCG) [Peptide 8]”, the inhibition of elastolysis entry in the experiment with purified HE was “equally effecive for these two connective tissue substrates”. Also, the “inhibition of 125I fibronectin degradation” value in experiment [1] was “nearly the same inhibitory profile against purified human elastase (HE) and PMN-derived HE activity”; in experiment [2], “nearly the same inhibitory profile against purified human elastase (HE) and PMN-derived HE activity”. Further, the “Inhibitory Activity Cathepsin G” value with Human Sputum Cathepsin G is given as “- (Represents less than 10% inhibition)”. The “Inhibitory Activity Trypsin” value with bovine trypsin was “- (Represents less than 10% inhibition)”.
